From the RNAGym collection of RNA variant scans (doi:10.1073/pnas.2313332121)

B1: TPR t1 (parent)
chain: GACCAAUCUGCCCUCAGAGCUCGAGAACAUCUUCGGAUGCAGAGGAGGCAGGCUUCGGUGGCGCGAUAGCGCCAACGUCCUCAACCUCCAAUGCAUCCCACCACAUGAUGAUGCCUGAAGAGCCUUGGUUUUUUG

Variants of: B1
Experiment: polymerase ribozyme fitness, log enrichment relative to wild type (log ratio); higher = more active; in vitro selection for triplet polymerase activity
Summary of the method: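 One round of in vitro selection, in triplicate, was applied to PCR-built, transcribed mutant libraries of each subunit of a heterodimeric triplet polymerase ribozyme. The steps were annealing with a biotinylated primer, partner subunit and triplets, incubation frozen at −7 °C, gel excision of extended constructs, streptavidin-bead capture and RT-PCR. Fitness is the logarithm, base 2, of genotype enrichment over wild-type enrichment from inverse-variance-weighted replicate averages of Illumina-sequenced inputs and outputs, keeping genotypes with ≥10 input reads and ≥1 read per output.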

Variant | polymerase ribozyme fitness (log ratio)
C12U G39U G63U G77C | -3.85
C12U G39U G113U U116G | -5.84
C12U G42U G77U G117U U126C | -1.93
C12U G45A G48A | -0.563
C12U G47A C102A | -2.63
C12U G47U C73A C86G G122A | -0.298
C12U G47U C85U U129G | -3.07
C12U G48A C115G U129A G135U | -2.25
C12U G48A G51U C56A | -2.84
C12U G48A U131A | -0.967
C12U G48U A111C | -0.108
C12U G51A U78C | -2.26
C12U G51U C73A U92A G113U U116G | -7.04
C12U G60C U112G | 0.137
C12U G60U | 0.415
C12U G61C | -1.48
C12U G63U | -0.968
C12U G63U C85G C88A | -4.33
C12U G69C U81C G110U | -3.57
C12U G71A | -0.123
C12U G117C | -1.68
C12U G117U | 0.316
C12U G120U | 2.06
C12U G122A | -0.00508

Variant | polymerase ribozyme fitness (log ratio)
C12U G128A | -1.59
C12U U14A C64U G110U G113A U130C | -4.16
C12U U14A C88G | -1.12
C12U U14G C79U | 0.109
C12U U21A A29G G63A | -2.72
C12U U32C U81A U112A | 0.32
C12U U33G A105U U112G U125A | -7
C12U U54A | 0.369
C12U U54A A91C C115U | -0.811
C12U U78A A108U G120C | -5.26
C12U U96G G128C | -2.88
C12U U109A | -3.34
C12U U112G | 0.735
C12U U132A | 0.262
C13A | -1.61
C13A A16U G60U C88U A121G | 1.33
C13A A16U G117U | -4.37
C13A A16U G120C | -0.322
C13A A18C | -4.69
C13A A18G C49A C94U G117U | -6.43
C13A A18G C73A | -4.96
C13A A18G C98G G120C | -1.26
C13A A18U C53U | -3.95
C13A A24G U32C C94U C104U G120A | -1.91

Variant | polymerase ribozyme fitness (log ratio)
C13A A26U A46U U81G C114U | -6.71
C13A A29G | -3.22
C13A A29G C70U A95U C124A | -1.57
C13A A41G G69A | -5.37
C13A A43C A83G C102A G110A U129C | -6.67
C13A A43C C101A A111C | -6.5
C13A A43C G44A G77A A83U | -4.05
C13A A43C G93C | -5.21
C13A A43U G60C C88A | -4.2
C13A A46G G63C | -2.95
C13A A46U A74U | -3.21
C13A A50G G71A | -2.13
C13A A66U C101A | -4.3
C13A A84G | -2.42
C13A A95C G120A | -0.521
C13A A103U A108U G117C U129A | -6.73
C13A C15G A37U A103C | -6.73
C13A C15U G44A C49U C73U C89A | -4.76
C13A C20U G61U | -2.05
C13A C20U G61U C72U | -3.24
C13A C20U U38A A91U C124G | -1.87
C13A C22A | -5.41
C13A C22U | -4.99
C13A C40A G93A A118U U129C | -3.28

Variant | polymerase ribozyme fitness (log ratio)
C13A C49U C53G U112C | -2.14
C13A C53A | -0.605
C13A C53A G120U U132C | -0.539
C13A C53G U54A G117C | -4.98
C13A C56U U59A | -2.77
C13A C70G C98U G120A | -2.39
C13A C72G A83G A121U C123U | -0.305
C13A C72G C82A C94U G110A | -3.05
C13A C72U A83C A84G U112C | -1.46
C13A C73A G120A C123A | -0.951
C13A C85G C123U | -0.463
C13A C85U A100C | -3.76
C13A C88A | -2.19
C13A C89G C97U | -3.27
C13A C97A | -5.11
C13A C97U | -2.68
C13A C114U | -2.86
C13A C115U | -3.06
C13A G35A C124G | -3.52
C13A G36C G69C | -2.94
C13A G44A G127C U131C | -2.25
C13A G44U C72U U78C G128A | -6.14
C13A G45U G69U | -1.92
C13A G47A C64U G93U C101G U131A | -5.14

Variant | polymerase ribozyme fitness (log ratio)
C13A G47C | -3.14
C13A G47U G63U | -4.2
C13A G48A C114U U129A | -5.75
C13A G48A U109A G120C | -5.29
C13A G52A U59C G113A | -3.69
C13A G57A G127C | -3.7
C13A G60A | -1.95
C13A G60U G69U | -4.92
C13A G61A C88A G110A | -2.92
C13A G61C A90C | -5.48
C13A G61U U92C C114A | -3.9
C13A G63A G77U U106A C114A | -6.33
C13A G63C | -2.37
C13A G63U | -3.09
C13A G63U U112C | -1.77
C13A G69U C72A G113A | -1.88
C13A G71A | -0.843
C13A G71A A74C G128A | -5.69
C13A G77U U106A C114A | -4.55
C13A G93C C123G | -0.906
C13A G117A | -4.07
C13A G120U | -0.457
C13A G122A | -2.07
C13A U21A A37C G93A | -2.9

Variant | polymerase ribozyme fitness (log ratio)
C13A U21A U54C C56G C86A U106G C124U | -2.59
C13A U21C G57A U59G A75U C86U C97U | -5.71
C13A U32C U109G G120C | -5.75
C13A U78A | -2.18
C13A U81A C88U G110A A121C | -2.71
C13A U87A U106A | -2.48
C13A U92C | -3.57
C13A U96A | -2.64
C13A U112G | -1.5
C13A U112G A121G | -1.42
C13G | -1.53
C13G A37G G71U C102G A103U U112A G117U G127C U130G | -6.56
C13G A37U U38C | -2.77
C13G A41U C56U A121G | 0.91
C13G A41U C72G C101U | -3.53
C13G A43U C76U C123G | -0.345
C13G A46U | -2.39
C13G A66U C79U C102A | -4.83
C13G A74C | -2.12
C13G A83C C94G A119U C123G G127C G135U | -3.17
C13G A83U | -2.24
C13G A100C | -3.31
C13G C20U | -2.34
C13G C20U C64U C104A A111U U130G | -5.67

Variant | polymerase ribozyme fitness (log ratio)
C13G C20U G48A | -3.29
C13G C22U G63U C79U G122A | -7.09
C13G C34U | -6.06
C13G C40U C49A C64A A100C C115U | -6.9
C13G C53G U59C U133G | -1.68
C13G C56A G63A | -3.78
C13G C56G G69C C89A G117U | -6.43
C13G C62A C124A | 0.6
C13G C62G A66U G113U | -7.31
C13G C62U | -1.43
C13G C62U U81A C94U C101U | -3.12
C13G C70A | -2.2
C13G C72A U78G | -2.9
C13G C80A C82G U130C | -4.35
C13G C82U U131A | -2.89
C13G C101U | -2.08
C13G G17A C115U | -1.42
C13G G17C | -4.94
C13G G19C G61U C88U | -4.01
C13G G35C C64U A90G G93A C97A C124A | -5.83
C13G G35U G61U C102U | -6.42
C13G G36A C40G | -4.55
C13G G36C C40U | -2.55
